Earlier results, collected in patent US8623366B2, “Methods for treating visceral pain by administering antagonist antibodies directed against calcitonin gene-related peptide” (Labrys Biologics, Inc., priority 2009, dated 2014).
Residue numbers refer to the chain shown, from its start. Names and notes keep the numbering of the source.

T1: human α-CGRP (Homo sapiens, UniProt P06881)
T1 sequence (P06881 83-119 limits assumed): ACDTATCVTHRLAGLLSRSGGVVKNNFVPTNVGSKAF

T2: α-rat CGRP (Rattus norvegicus, UniProt P01256)
T2 sequence (P01256 83-119 limits assumed): T1 sequence (P06881 83-119 limits assumed) with A1S, D3N, N25D, K35E

B1: M46: G1 variant: L1 R28N; L2 G50A L56T; H2 E54K A57N S58E H61F; HC-FW3 L99T A100V (antibody, chains of the INN, looked up, variant L:R28N L:G50A L:L56T H:E54K H:A57N H:S58E H:H61F H:L99T H:A100V, V domains shown)
VH: EVQLVESGGGLVQPGGSLRLSCAASGFTFSNYWISWVRQAPGKGLEWVAEIRSKSDNEATFYAEAVKGRFTISRDNAKNSLYLQMNSLRAEDTAVYYCTVYFDYGLAIQNYWGQGTLVTVSS
VL: EIVLTQSPATLSLSPGERATLSCKASKNVTTYVSWYQQKPGQAPRLLIYAASNRYTGIPARFSGSGSGTDFTLTISSLEPEDFAVYYCSQSYNYPYTFGQGTKLEIK
B2: M47: G1 variant: L1 R28N; L2 G50A L56T; H2 E54K A57N S58G; HC-FW3 L99T A100V (antibody, chains of the INN, looked up, variant L:R28N L:G50A L:L56T H:E54K H:A57N H:S58G H:L99T H:A100V, V domains shown)
VH: B1 VH with E58G, F61H
VL: B1 VL
B3: M49: G1 variant: L1 R28N; L2 G50A L56T; H2 E54K A57N S58Y H61F; HC-FW3 L99T A100V (antibody, chains of the INN, looked up, variant L:R28N L:G50A L:L56T H:E54K H:A57N H:S58Y H:H61F H:L99T H:A100V, V domains shown)
VH: B1 VH with E58Y
VL: B1 VL
B4: M51: G1 variant: L1 R28N; L2 L56I; H2 E54K A57G; HC-FW3 L99T A100V (antibody, chains of the INN, looked up, variant L:R28N L:L56I H:E54K H:A57G H:L99T H:A100V, V domains shown)
VH: B1 VH with N57G, E58S, F61H
VL: B1 VL with A50G, T56I
B5: M55: G1 variant: L1 R28N T30A; L2 L56S; H2 E54K A57N S58E E64D; HC-FW3 L99T A100V (antibody, chains of the INN, looked up, variant L:R28N L:T30A L:L56S H:E54K H:A57N H:S58E H:E64D H:L99T H:A100V, V domains shown)
VH: B1 VH with F61H, E64D
VL: B1 VL with T30A, A50G, T56S
B6: M62: G1 variant: L1 R28N T30G; L2 A51H L56T; H2 E54K A57N S58E; HC-FW3 L99T A100V (antibody, chains of the INN, looked up, variant L:R28N L:T30G L:A51H L:L56T H:E54K H:A57N H:S58E H:L99T H:A100V, V domains shown)
VH: B1 VH with F61H
VL: B1 VL with T30G, A50G, A51H
B7: M71: G1 variant: L1 R28N T30G; L2 L56I; H2 E54K A57Y; HC-FW3 L99T A100V (antibody, chains of the INN, looked up, variant L:R28N L:T30G L:L56I H:E54K H:A57Y H:L99T H:A100V, V domains shown)
VH: B1 VH with N57Y, E58S, F61H
VL: B1 VL with T30G, A50G, T56I
B8: M83: G1 variant: L1 R28N T30V; L2 A51H L56T; H2 E54K A57N S58M H61F; HC-FW3 L99T A100V (antibody, chains of the INN, looked up, variant L:R28N L:T30V L:A51H L:L56T H:E54K H:A57N H:S58M H:H61F H:L99T H:A100V, V domains shown)
VH: B1 VH with E58M
VL: B1 VL with T30V, A50G, A51H

How the values were obtained:
[1] = target: T1, human α-CGRP; conditions: Table 6 reproduced from WO2007/054809; cited from earlier work
[2] = target: T2, α-rat CGRP; conditions: Table 6 reproduced from WO2007/054809; cited from earlier work

Molecule | Kd [1] [nM] | Kd [2] [nM]
M2: G1 variant: HC-FW3 L99A A100R [Clone M2] | 3 | 58
M8: G1 variant: HC-FW3 L99N A100G [Clone M8] | 0.58 | 41.4
M10: G1 variant: HC-FW3 L99S A100S [Clone M10] | 1.08 | 83.9
M15: G1 variant: HC-FW3 L99T A100P [Clone M15] | 0.1 | 63.9
M18: G1 variant: HC-FW3 L99V A100G [Clone M18] | 0.44 | 67.8
B1 | 3.37 | 163
B2 | 2.08 | 457
B3 | 3.72 | 822
B4 | 0.82 | 65.6
B5 | 2.99 | 325
B6 | 5.86 | 242
B7 | – | 118
B8 | 5.83 | –
